Assay results: patent US20200024330A1

B1: PGT-136 (5329_C19; 5366_P21) (antibody, V domains shown)
VH: QLQLQESGPGLVKPSETLSLTCTVSGGSMRGTDWGENDFHYGWIRQSSAKGLEWIGSIHWRGRTTHYKTSFRSRATLSIDTSNNRFSLTFSFVTAADTAVYYCARHKYHDIFRVVPVAGWFDPWGQGLLVTVSS
VL: EIVMTQSPPTLSVSPGETATLSCRASQNVKNNLAWYQLKPGQAPRLLIFDASSRAGGIPDRFSGSGYGTDFTLTVNSVQSEDFGDYFCQQYEEWPRTFGQGTKVDIK
B2: 4869_K15 (antibody, V domains shown)
VH: QVHLQESGPGLVTPSETLSLTCTVSNGSVSGRFWSWIRQSPGRGLEWIGYFSDTDRSEYNPSLRSRLTLSVDRSKNQLSLRLKSVTAADSATYYCARAQQGKRIYGIVSFGEFFYYYYMDAWGKGTPVTVSS
VL: SLNPLSLAPGATAKIPCGERSRGSRAVQWYQQKPGQAPTLIIYNNQDRPAGVSERFSGNPDVAIGVTATLTISRVEVGDEADYYCHYWDSRSPISWIFGGGTQLTVL
B3: PGT-135 (5343_B08; 5344_E16) (antibody, V domains shown)
VH: QLQMQESGPGLVKPSETLSLSCTVSGDSIRGGEWGDKDYHWGWVRHSAGKGLEWIGSIHWRGTTHYKESLRRRVSMSIDTSRNWFSLRLASVTAADTAVYFCARHRHHDVFMLVPIAGWFDVWGPGVQVTVSS
VL: EIVMTQSPDTLSVSPGETVTLSCRASQNINKNLAWYQYKPGQSPRLVIFETYSKIAAFPARFVASGSGTEFTLTINNMQSEDVAVYYCQQYEEWPRTFGQGTKVDIK

Assays:
Assay in all cases: cell-based or functional assay
[1] = target: HIV-1 MGRM-D-018 Env (on pseudovirus) (HIV-1)
[2] = target: aMLV envelope protein (on pseudovirus, negative control) (aMLV)
[3] = target: HIV-1 APV17 Env (on pseudovirus) (HIV-1)
[4] = target: HIV-1 93IN905 Env (on pseudovirus) (HIV-1)
[5] = target: HIV-1 MGRM-C-027 Env (on pseudovirus) (HIV-1)
[6] = target: HIV-1 92TH021 Env (on pseudovirus) (HIV-1)
[7] = target: HIV-1 MGRM-AG-005 Env (on pseudovirus) (HIV-1)
[8] = target: HIV-1 MGRM-A-010 Env (on pseudovirus) (HIV-1)
[9] = target: HIV-1 CMU02 Env (on pseudovirus) (HIV-1)
[10] = target: HIV-1 APV13 Env (on pseudovirus) (HIV-1)
[11] = target: HIV-1 93UG077 Env (on pseudovirus) (HIV-1)
[12] = target: HIV-1 MGRM-C-026 Env (on pseudovirus) (HIV-1)
[13] = target: HIV-1 92UG005 Env (on pseudovirus) (HIV-1)
[14] = target: HIV-1 94UG103 Env (on pseudovirus) (HIV-1)
[15] = target: HIV-1 MGRM-D-001 Env (on pseudovirus) (HIV-1)
[16] = target: panel of HIV-1 pseudoviruses of Table 52
[17] = target: HIV-1 MGRM-C-028 Env (on pseudovirus) (HIV-1)
[18] = target: HIV-1 JRFL Env (on pseudovirus) (HIV-1)
[19] = target: HIV-1 NL43 Env (on pseudovirus) (HIV-1)
[20] = target: HIV-1 92UG024 Env (on pseudovirus) (HIV-1)
[21] = target: HIV-1 JRCSF Env (on pseudovirus) (HIV-1) (UniProt P20871)
[22] = target: HIV-1 APV6 Env (on pseudovirus) (HIV-1)
[23] = target: HIV-1 Env of isolate JR-CSF (HIV-1) (UniProt P20871)
[24] = target: HIV-1 Env of isolate 94UG103 (HIV-1)
[25] = target: HIV-1 Env of isolate 92BR020 (HIV-1)
[26] = target: HIV-1 Env of isolate MGRM-C-026 (HIV-1)

| Binder | IC50 (ug/ml), pseudovirus neutralization [1] | IC50 (ug/ml), pseudovirus neutralization [2] | IC50 (ug/ml), pseudovirus neutralization [3] | IC50 (ug/ml), pseudovirus neutralization [4] | IC50 (ug/ml), pseudovirus neutralization [5] | IC50 (ug/ml), pseudovirus neutralization [6] | IC50 (ug/ml), pseudovirus neutralization [7] | IC50 (ug/ml), pseudovirus neutralization [8] | IC50 (ug/ml), pseudovirus neutralization [9] | IC50 (ug/ml), pseudovirus neutralization [10] | IC50 (ug/ml), pseudovirus neutralization [11] | IC50 (ug/ml), pseudovirus neutralization [12] | IC50 (ug/ml), pseudovirus neutralization [13] | IC50 (ug/ml), pseudovirus neutralization [14] | IC50 (ug/ml), pseudovirus neutralization [15] | % neutralized (viruses of the panel) [16] | median IC50 (ug/ml), pseudovirus neutralization [16] | IC50 (ug/ml), pseudovirus neutralization [17] | IC50 (ug/ml), pseudovirus neutralization [18] | IC50 (ug/ml), pseudovirus neutralization [19] | further results |
| --- | --- | --- | --- | --- | --- | --- | --- | --- | --- | --- | --- | --- | --- | --- | --- | --- | --- | --- | --- | --- | --- |
| B1 | > 10 µg/mL | > 10 µg/mL | > 10 µg/mL | 0.0135 µg/mL | > 10 µg/mL | > 10 µg/mL | > 10 µg/mL | > 10 µg/mL | > 10 µg/mL | > 10 µg/mL | > 10 µg/mL | 0.0065 µg/mL | > 10 µg/mL | > 10 µg/mL | > 10 µg/mL | 18% | 0.05 µg/mL | > 10 µg/mL | > 10 µg/mL | > 10 µg/mL | IC50 (ug/ml), pseudovirus neutralization [20]: 0.0915 µg/mL; IC50 (ug/ml), pseudovirus neutralization [21]: > 10 µg/mL; IC50 (ug/ml), pseudovirus neutralization [22]: > 10 µg/mL |
| B2 | – | – | – | – | – | – | – | – | – | – | – | – | – | – | – | – | – | – | – | – | Primary Neutralization Index (B cell culture well 4869 K15) [23]: 2.1; Primary Neutralization Index (B cell culture well 4869 K15) [24]: 1.5; Primary Neutralization Index (B cell culture well 4869 K15) [25]: 3.9; Primary Neutralization Index (B cell culture well 4869 K15) [26]: 104 |
| B3 | 0.0433 µg/mL | > 10 µg/mL | > 10 µg/mL | 0.0183 µg/mL | > 10 µg/mL | > 10 µg/mL | > 10 µg/mL | > 10 µg/mL | > 10 µg/mL | 0.545 µg/mL | > 10 µg/mL | 0.0123 µg/mL | > 10 µg/mL | > 10 µg/mL | > 10 µg/mL | 54% | 0.11 µg/mL | 2.16 µg/mL | > 10 µg/mL | 6.79 µg/mL | IC50 (ug/ml), pseudovirus neutralization [20]: 0.0139 µg/mL; IC50 (ug/ml), pseudovirus neutralization [21]: 0.113 µg/mL; IC50 (ug/ml), pseudovirus neutralization [22]: > 10 µg/mL |
